Measured values from patent publication US20230190932A1 (Genentech, Inc., priority 2021, published 2023).
Entries after “also recorded” stand apart in the source; their conditions may differ.

Experiments:
[1] = Chen N et al. Clin Pharmacokinet. 2017; cited from earlier work
[2] = test system: CD4+ and CD8+ T-cell; conditions: Haslett et al. 1998; Davies et al. 2001; cited from earlier work
[3] = test system: patients with relapsed or refractory follicular lymphoma; conditions: in vivo
Description: Patients with r/r FL after at least one prior systemic therapy are eligible to enter the study.
Lenalidomide 20 mg was the dose for all patients.

[4] = Study CO41942: mosunetuzumab pharmacokinetics in combination with lenalidomide vs popPK simulation of monotherapy (Study GO29781); assay type: in vivo, human; conditions: 1/2/30 mg IV Q4W; N = 13; preliminary
[5] = test system: R/R NHL patients; conditions: in vivo
[6] = test system: R/R NHL patients; assay: Related study with monotherapy mosunetuzumab (IV): safety summary

Compound: Nc1cccc2c1CN(C1CCC(=O)NC1=O)C2=O (racemic) [lenalidomide, (3RS)-3-(4-Amino-1-oxo-1,3-dihydro-2H-isoindol-2-yl)piperidine-2,6-dione]
- route of excretion [1]: primarily excreted in the urine
- immunomodulatory activity on T cells [2]: enhance CD4+ and CD8+ T-cell co-stimulation, induce T-cell proliferation, and enhance IL-2 and IFN-γ

Compound: Mosunetuzumab: anti-CD20/anti-CD3 bispecific antibody, INN List 117, CAS Registry Number 1905409-39-3
- AESI by PT: Alanine aminotransferase increased [3]: 1 (6.3%)
- AESI by PT: Aspartate aminotransferase increased [3]: 1 (6.3%)
- AESI by PT: Cytokine release syndrome [3]: 5 (31.3%)
- AESI by PT: Neutropenia [3]: 4 (25.0%)
- AESI by PT: Pleural effusion [3]: 1 (6.3%)
- AESI by PT: Thrombocytopenia [3]: 1 (6.3%)
- AESI: Overall total number of events [3]: 20
- Blood and lymphatic system disorders: Total number of AESI events [3]: 10
- Blood and lymphatic system disorders: Total number of Grade 3-5 events [3]: 9
- Blood and lymphatic system disorders: patients with at least one AESI [3]: 4 (25.0%)
- Blood and lymphatic system disorders: patients with at least one Grade 3-5 AE [3]: 4 (25.0%)
- Grade 3-5 AE: Erythema (Skin and subcutaneous tissue disorders) [3]: 1 (6.3%)
- Grade 3-5 AE: Erythema (listed under Investigations) [3]: 1 (6.3%)
- Grade 3-5 AE: Neutropenia [3]: 4 (25.0%)
- Grade 3-5 AE: Rash maculo-papular (Skin and subcutaneous tissue disorders) [3]: 1 (6.3%)
- Grade 3-5 AE: Rash maculo-papular (listed under Investigations) [3]: 1 (6.3%)
- Immune system disorders: Total number of AESI events [3]: 7
- Immune system disorders: patients with at least one AESI [3]: 5 (31.3%)
- Investigations: Total number of AESI events [3]: 2
- Investigations: Total number of Grade 3-5 events [3]: 2
- Investigations: patients with at least one AESI [3]: 1 (6.3%)
- Investigations: patients with at least one Grade 3-5 AE [3]: 1 (6.3%)
- Respiratory, thoracic, and mediastinal disorders: Total number of AESI events [3]: 1
- Respiratory, thoracic, and mediastinal disorders: patients with at least one AESI [3]: 1 (6.3%)
- Skin and subcutaneous tissue disorders: Total number of Grade 3-5 events [3]: 2
- Skin and subcutaneous tissue disorders: patients with at least one Grade 3-5 AE [3]: 2 (12.5%)
- Total number of patients with at least one AESI [3]: 7 (43.8) %
- Total number of patients with at least one Grade 3-5 AE [3]: 5 (31.3%)
- mosunetuzumab PK in combination with lenalidomide compared with monotherapy [4]: similar; also recorded: consistent with what was expected
- observed concentration measurements vs popPK model simulated 5th to 95th prediction intervals [4]: fell generally within
- AESI: Neutropenia/neutrophil count decrease [5]: 56 (26.3) N (%)
- AESI: ALT increased ([6]; N = 213): 22 (10.3) N (%)
- AESI: AST increased ([6]; N = 213): 14 (6.6) N (%)
- AESI: Febrile neutropenia ([6]; N = 213): 6 (2.8) N (%)
- AESI: Thrombocytopenia ([6]; N = 213): 14 (6.6) N (%)
- AESI: Tumor flare ([6]; N = 213): 4 (1.9) N (%)
- AESI: Tumor lysis syndrome ([6]; N = 213): 3 (1.4) N (%)
- AEs leading to dose modification/interruption ([6]; N = 213): 29 (13.6) N (%)
- AEs leading to dose modification/interruption: Mosunetuzumab ([6]; N = 213): 29 (13.6) N (%)
- AEs leading to treatment withdrawal ([6]; N = 213): 7 (3.3) N (%)
- AEs leading to treatment withdrawal: Mosunetuzumab ([6]; N = 213): 7 (3.3) N (%)
- Deaths ([6]; N = 213): 64 (30.0) N (%)
- Grade 3-5 AEs ([6]; N = 213): 141 (66.2) N (%)
- Patients who experienced at least one adverse event (AE) ([6]; N = 213): 207 (97.2) N (%)
- Serious AEs ([6]; N = 213): 107 (50.2) N (%)
- Total number of AEs ([6]; N = 213): 2258
- Treatment-related AEs ([6]; N = 213): 183 (85.9) N (%)
- Treatment-related AEs: Mosunetuzumab ([6]; N = 213): 183 (85.9) N (%)
- Fatal AEs ([6]; N = 213, does not include death due to progressive disease): 5 (2.3) N (%)
- AESI: Cytokine release syndrome ([6]; per ASTCT criteria, N = 213): 79 (37.1) N (%)
